In patent US20240279318A1 (NANJING LEGEND BIOTECH, published 2024) one finds Affinity increase and Kd data, which are given here for 44 molecules.

B1: LY93D (scFv)
scFv: QSALTQPRSVSGSPGQSVTISCAGTSSDVGSENYVSWYQQHPGKAPKLMIYQVNKRASGVPDRFSGSKSGNTASLTISGLQAEDEADYYCASDRSSDHNIVFGGGTKLTVLGGGGSGGGGSGGGGSEVQLVESGGGLVQPGGSLRLSCAASGFTFSSYAMSWVRQAPGKGLEWVSTINSGTGSPYYADSVKGRFTISRDNSKNTLYLQMNSLRAEDTAVYYCAKNFFDGSWFLGPPAMDYWGQGTLVTVSSHHHHHH
notes: AS170036 VL1VH1 scFv mutein
B2: LY93T (scFv)
scFv: B1 scFv with D93T
notes: AS170036 VL1VH1 scFv mutein
B3: LY93H (scFv)
scFv: B1 scFv with D93H
notes: AS170036 VL1VH1 scFv mutein
B4: LY93N (scFv)
scFv: B1 scFv with D93N
notes: AS170036 VL1VH1 scFv mutein
B5: HD102E (scFv)
scFv: B1 scFv with D93Y, D228E
notes: AS170036 VL1VH1 scFv mutein
B6: HG108N (scFv)
scFv: B1 scFv with D93Y, G234N
notes: AS170036 VL1VH1 scFv mutein; also called AS170036 VL1VH1-VHG108N
B7: HL107M (scFv)
scFv: B1 scFv with D93Y, L233M
notes: AS170036 VL1VH1 scFv mutein
B8: HP110E (scFv)
scFv: B1 scFv with D93Y, P236E
notes: AS170036 VL1VH1 scFv mutein
B9: HG56M (scFv)
scFv: B1 scFv with D93Y, G182M
notes: AS170036 VL1VH1 scFv mutein
B10: HG108A (scFv)
scFv: B1 scFv with D93Y, G234A
notes: AS170036 VL1VH1 scFv mutein; also called AS170036 VL1VH1-VHG108A
B11: HG56L (scFv)
scFv: B1 scFv with D93Y, G182L
notes: AS170036 VL1VH1 scFv mutein
B12: HG56E (scFv)
scFv: B1 scFv with D93Y, G182E
notes: AS170036 VL1VH1 scFv mutein
B13: HP58G (scFv)
scFv: B1 scFv with D93Y, P184G
notes: AS170036 VL1VH1 scFv mutein
B14: HG56F (scFv)
scFv: B1 scFv with D93Y, G182F
notes: AS170036 VL1VH1 scFv mutein; also called AS170036 VL1VH1-VHG56F
B15: HP110G (scFv)
scFv: B1 scFv with D93Y, P236G
notes: AS170036 VL1VH1 scFv mutein
B16: HP58Q (scFv)
scFv: B1 scFv with D93Y, P184Q
notes: AS170036 VL1VH1 scFv mutein
B17: HG108D (scFv)
scFv: B1 scFv with D93Y, G234D
notes: AS170036 VL1VH1 scFv mutein; also called AS170036 VL1VH1-VHG108D
B18: HP110D (scFv)
scFv: B1 scFv with D93Y, P236D
notes: AS170036 VL1VH1 scFv mutein
B19: HF101W (scFv)
scFv: B1 scFv with D93Y, F227W
notes: AS170036 VL1VH1 scFv mutein
B20: HG108T (scFv)
scFv: B1 scFv with D93Y, G234T
notes: AS170036 VL1VH1 scFv mutein
B21: HG108L (scFv)
scFv: B1 scFv with D93Y, G234L
notes: AS170036 VL1VH1 scFv mutein
B22: HF101Y (scFv)
scFv: B1 scFv with D93Y, F227Y
notes: AS170036 VL1VH1 scFv mutein
B23: HG108V (scFv)
scFv: B1 scFv with D93Y, G234V
notes: AS170036 VL1VH1 scFv mutein
B24: HG56N (scFv)
scFv: B1 scFv with D93Y, G182N
notes: AS170036 VL1VH1 scFv mutein; also called AS170036 VL1VH1-VHG56N
B25: HP110A (scFv)
scFv: B1 scFv with D93Y, P236A
notes: AS170036 VL1VH1 scFv mutein
B26: HG56W (scFv)
scFv: B1 scFv with D93Y, G182W
notes: AS170036 VL1VH1 scFv mutein
B27: HP110Q (scFv)
scFv: B1 scFv with D93Y, P236Q
notes: AS170036 VL1VH1 scFv mutein
B28: HG56S (scFv)
scFv: B1 scFv with D93Y, G182S
notes: AS170036 VL1VH1 scFv mutein
B29: HG56R (scFv)
scFv: B1 scFv with D93Y, G182R
notes: AS170036 VL1VH1 scFv mutein
B30: HL107I (scFv)
scFv: B1 scFv with D93Y, L233I
notes: AS170036 VL1VH1 scFv mutein
B31: HG56A (scFv)
scFv: B1 scFv with D93Y, G182A
notes: AS170036 VL1VH1 scFv mutein
B32: HG108E (scFv)
scFv: B1 scFv with D93Y, G234E
notes: AS170036 VL1VH1 scFv mutein; also called AS170036 VL1VH1-VHG108E
B33: HG56K (scFv)
scFv: B1 scFv with D93Y, G182K
notes: AS170036 VL1VH1 scFv mutein
B34: HG56H (scFv)
scFv: B1 scFv with D93Y, G182H
notes: AS170036 VL1VH1 scFv mutein
B35: HP58A (scFv)
scFv: B1 scFv with D93Y, P184A
notes: AS170036 VL1VH1 scFv mutein
B36: HP58E (scFv)
scFv: B1 scFv with D93Y, P184E
notes: AS170036 VL1VH1 scFv mutein
B37: HG56D (scFv)
scFv: B1 scFv with D93Y, G182D
notes: AS170036 VL1VH1 scFv mutein
B38: HG56T (scFv)
scFv: B1 scFv with D93Y, G182T
notes: AS170036 VL1VH1 scFv mutein
B39: HG108Q (scFv)
scFv: B1 scFv with D93Y, G234Q
notes: AS170036 VL1VH1 scFv mutein
B40: HL107N (scFv)
scFv: B1 scFv with D93Y, L233N
notes: AS170036 VL1VH1 scFv mutein
B41: HG56Q (scFv)
scFv: B1 scFv with D93Y, G182Q
notes: AS170036 VL1VH1 scFv mutein
B42: HG108M (scFv)
scFv: B1 scFv with D93Y, G234M
notes: AS170036 VL1VH1 scFv mutein; also called AS170036 VL1VH1-VHG108M
B43: HG56Y (scFv)
scFv: B1 scFv with D93Y, G182Y
notes: AS170036 VL1VH1 scFv mutein; also called AS170036 VL1VH1-VHG56Y
B44: HG108S (scFv)
scFv: B1 scFv with D93Y, G234S
notes: AS170036 VL1VH1 scFv mutein; also called AS170036 VL1VH1-VHG108S

One may read the Kd as a measure of binding affinity in units of concentration. Read a high Kd as lower affinity.

Changes are numbered by the printed parent chain.

In the first test the target is T1, AFP158/HLA-A*02:01 complex (human).
T1 construct: flowed over the chip in SPR; also called AFP158 pro
Kind of test: SPR, KD ratio to AS170036 VL1VH1. (In general: SPR reads the build-up and loss of mass on a sensor chip optically.)
As for B1, the Affinity increase turned out to be 0.2 fold.

As for B2, the Affinity increase stood at 0.3 fold.

Regarding B3, the Affinity increase was determined as 0.4 fold.

Turning to B4, the Affinity increase stood at 0.2 fold.

In another test the target is T1, AFP158/HLA-A*02:01 complex. The experiment in a line: SPR, scFv captured, pMHC in flow.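 Further: complex injected at several concentrations over crude scFv, association then running-buffer dissociation, KD estimated from kinetic on- and off-rate constants.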
Molecule B1 showed a dissociation constant (Kd) of 1200 nM.

B2 yielded a Kd of 840 nM.

Turning to B3, the equilibrium dissociation constant (Kd) was 620 nM. This Kd and that of the molecule before are within 1.5-fold of each other.

For B4, the Kd was 1400 nM.

In another test the target is T1, AFP158/HLA-A*02:01 complex. Kind of test: SPR, KD ratio to AS170036 VL1VH1.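 Further: crude scFv captured on a sensor chip, peptide–HLA complex passed over at several concentrations, association then buffer dissociation, KD derived from on- and off-rates.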 This is another data set of the same source.
Protocol: (§1) The experiment was carried out as follows. The crude scFv protein were captured onto the sensorchip. Different concentrations (320, 160, 40 nM) of AFP158/HLA-A*02:01 complex flowed over the sensorchip surface, and were allowed to bind the antibody fragment for 100 s followed by injection of the running buffer to allow dissociation of the complex. On-rate (kd) and off-rate (kd) were calculated based on association and dissociation curve, and were used to estimate the equilibrium dissociation constant (KD).
Turning to B5, the Affinity increase was found to be 1.2 fold.

On to B6, for which the Affinity increase amounted to 2 fold.

Take B7: the Affinity increase is 0.7 fold.

With B8, the Affinity increase worked out at 1.8 fold.

For the molecule B9, the Affinity increase was determined as 1.7 fold.

Consider B10, for which the Affinity increase worked out at 5.5 fold.

B11: the Affinity increase amounted to 0.8 fold.

With B12, the Affinity increase was found to be 1 fold.

Regarding B13, the Affinity increase was determined as 0.9 fold.

Consider B14, for which the Affinity increase worked out at 2.3 fold.

B15: the Affinity increase is 1 fold.

Consider B16, for which the Affinity increase came out at 0.5 fold.

B17: the Affinity increase was 5.5 fold.

Regarding B18, the Affinity increase is 0.5 fold.

Take B19: the Affinity increase was 0.8 fold.

On to B20, for which the Affinity increase was found to be 0.5 fold.

In the case of B21, the Affinity increase amounted to 1.4 fold.

B22: the Affinity increase is 1.1 fold.

For B23, the Affinity increase was found to be 0.7 fold.

With B24, the Affinity increase was found to be 2.5 fold.

Consider B25, for which the Affinity increase turned out to be 1.3 fold.

In the case of B26, the Affinity increase was determined as 1.7 fold.

B27: the Affinity increase was 0.9 fold.

For the molecule B28, the Affinity increase stood at 1.5 fold.

B29: the Affinity increase was found to be 0.8 fold.

For B30, the Affinity increase was 1.1 fold.

For B31, the Affinity increase came out at 1.4 fold.

For the molecule B32, the Affinity increase was found to be 4.1 fold.

In the case of B33, the Affinity increase is 0.7 fold.

With B34, the Affinity increase was found to be 1.5 fold.

Take B35: the Affinity increase is 0.7 fold.

For the molecule B36, the Affinity increase amounted to 0.5 fold.

With B37, the Affinity increase amounted to 1 fold.

As to B38, the Affinity increase stood at 0.7 fold.

On to B39, for which the Affinity increase stood at 1.4 fold.

For the molecule B40, the Affinity increase turned out to be 0.5 fold.

As for B41, the Affinity increase stood at 1 fold.

Regarding B42, the Affinity increase is 4.7 fold.

In the case of B43, the Affinity increase turned out to be 6.6 fold.

For B44, the Affinity increase was found to be 2.8 fold.

For the next test, the target named is T1, AFP158/HLA-A*02:01 complex. The experiment in a line: SPR, scFv captured, pMHC in flow.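 Further: complex injected at several concentrations over crude scFv, association then running-buffer dissociation, KD estimated from kinetic on- and off-rate constants.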 The source holds these as a separate data set.
Protocol: as §1
Regarding B5, the Kd worked out at 190 nM.

The molecule B6 registered a Kd of 140 nM.

B7 had a Kd of 370 nM.

Regarding B8, binding was put at a Kd of 150 nM.

In turn, B9 had a Kd of 130 nM.

B10 had a Kd of 42 nM.

In turn, B11 showed an equilibrium dissociation constant (Kd) of 290 nM. Compared with the last molecule, the Kd is about 6.9-fold higher.

For B12, the Kd is 240 nM.

Take B13: the Kd is 320 nM.

For B14, the equilibrium dissociation constant (Kd) turned out to be 98 nM.

B15 came in with an equilibrium dissociation constant (Kd) of 260 nM.

B16 returned a Kd of 500 nM.

In the case of B17, the equilibrium dissociation constant (Kd) was determined as 42 nM.

B18 came in with a Kd of 540 nM.

Molecule B19 registered a Kd of 300 nM. Against the preceding molecule, the Kd is about 1.8-fold lower.

Molecule B20 came in with a Kd of 530 nM.

Consider B21, for which binding was put at a Kd of 200 nM.

Turning to B22, binding was characterised by a dissociation constant (Kd) of 210 nM. The Kd values of the last two molecules are within 1.5-fold of each other.

In turn, B23 registered a dissociation constant (Kd) of 370 nM.

Molecule B24 showed a dissociation constant (Kd) of 92 nM. Against the preceding molecule, the Kd is about 4-fold lower.

B25 displayed a Kd of 210 nM. This Kd lies about 2.3-fold higher than the previous one.

B26 returned a Kd of 130 nM.

B27 showed a dissociation constant Kd of 300 nM.

As to B28, the Kd was found to be 160 nM. This Kd lies about 1.9-fold lower than the previous one.

As to B29, the Kd was determined as 300 nM.

B30: the Kd turned out to be 240 nM.

B31 had a Kd of 160 nM. This Kd is about 1.5-fold lower than that of the molecule before.

B32 gave a Kd of 56 nM.

B33 yielded a Kd of 350 nM.

Molecule B34 gave a dissociation constant Kd of 150 nM.

Molecule B35 came in with a dissociation constant (Kd) of 380 nM.

B36 yielded a Kd of 600 nM.

In the case of B37, binding was characterised by a dissociation constant (Kd) of 230 nM.

B38 had an equilibrium dissociation constant (Kd) of 340 nM.

The molecule B39 displayed a Kd of 200 nM.

B40 came in with a Kd of 530 nM. This Kd lies about 2.6-fold higher than the previous one.

Turning to B41, the Kd was found to be 240 nM.

In turn, B42 had a dissociation constant Kd of 58 nM.

For B43, the dissociation constant (Kd) was found to be 35 nM.

Turning to B44, the Kd amounted to 96 nM.
